In paper PMC12102760:

Target: IgG 1C1
Assay: BLI; IgG captured on anti-human biosensors, quenched with Fc; receptor ECD-Fc in solution, three-fold dilutions from 300 nM; PBS, 1% BSA, 0.05% Tween 20; 25°C; 1:1 binding model

Chain of IgG 1C1 (heavy, as listed by the source, chain 1 of 2): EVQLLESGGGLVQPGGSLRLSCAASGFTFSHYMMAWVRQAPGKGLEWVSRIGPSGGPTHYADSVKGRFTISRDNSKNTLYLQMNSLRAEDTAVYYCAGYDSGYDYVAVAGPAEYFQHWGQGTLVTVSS
Chain of IgG 1C1 (light, as listed by the source, chain 2 of 2): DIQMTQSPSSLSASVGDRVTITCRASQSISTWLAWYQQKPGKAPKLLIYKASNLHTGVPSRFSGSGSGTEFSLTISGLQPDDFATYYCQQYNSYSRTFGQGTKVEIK

B1: EphA8-Fc (Fc fusion)
chain: ARGEVNLLDTSTIHGDWGWLTYPAHGWDSINEVDESFQPIHTYQVCNVMSPNQNNWLRTSWVPRDGARRVYAEIKFTLRDCNSMPGVLGTCKETFNLYYLESDRDLGASTQESQFLKIDTIAADESFTGADLGVRRLKLNTEVRSVGPLSKRGFYLAFQDIGACLAILSLRIYYKKCPAMVRNLAAFSEAVTGADSSSLVEVRGQCVRHSEERDTPKMYCSAEGEWLVPIGKCVCSAGYEERRDACVACELGFYKSAPGDQLCARCPPHSHSAAPAAQACHCDLSYYRAALDPPSSACTRPPSAPVNLISSVNGTSVTLEWAPPLDPGGRSDITYNAVCRRCPWALSRCEACGSGTRFVPQQTSLVQASLLVANLLAHMNYSFWIEAVNGVSDLSPEPRRAAVVNITTNQAAPSQVVVIRQERAGQTSVSLLWQEPEQPNGIILEYEIKYYEKDKEMQSYSTLKAVTTRATVSGLKPGTRYVFQVRARTSAGCGRFSQAMEVETGKPRPRYDTRT
B1 was tested. Which Kd did it give?
The Kd was 970 nM.
